Assay results reported in the supplement of paper PMC7125110.
± gives the standard error. For part of these data: Variants at the floor of the assay were thinned out.

B1: glmS ribozyme (parent)
chain: AUAAAAGCGCCAGAACUACAGAAAUGUAGUUGACGAGGAGGAGGUUUAUCGAAUUUUCGGCGGAUGCCUCCAAA

How the values were obtained:
Details in all cases: with glucosamine-6-phosphate
glucosamine-6-phosphate [1] = variants of: B1; experiment: kcat; higher = faster cleavage; RNA array
Procedure, shortened: (§1)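 Glucosamine-6-phosphate, from 40 μM to 10 mM in HEPES/KCl/Mg(OAc)2 buffer, was flowed over sequenced MiSeq chips carrying barcoded ribozyme variants transcribed in situ by E. coli RNA polymerase. A hybridised Cy3 probe tracked the variants at 37 °C as tiles were imaged over ~14 h. kobs, kcat and KM were obtained by fitting normalised per-tile medians to exponential decays and then applying weighted Michaelis–Menten fits across concentrations.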

glucosamine-6-phosphate [2] = variants of: B1; experiment: KM; higher = weaker cofactor use; RNA array
Procedure, shortened: as §1

glucosamine-6-phosphate [3] = variants of: B1; experiment: self-cleavage kobs at 40 uM GlcN6P; higher = faster cleavage; RNA array
Procedure, shortened: as §1

glucosamine-6-phosphate [4] = variants of: B1; experiment: self-cleavage kobs at 160 uM GlcN6P; higher = faster cleavage; RNA array
Procedure, shortened: as §1

glucosamine-6-phosphate [5] = variants of: B1; experiment: self-cleavage kobs at 640 uM GlcN6P; higher = faster cleavage; RNA array
Procedure, shortened: as §1

glucosamine-6-phosphate [6] = variants of: B1; experiment: self-cleavage kobs at 2500 uM GlcN6P; higher = faster cleavage; RNA array
Procedure, shortened: as §1

glucosamine-6-phosphate [7] = variants of: B1; experiment: self-cleavage kobs at 10000 uM GlcN6P; higher = faster cleavage; RNA array
Procedure, shortened: as §1

Variant | kcat (glucosamine-6-phosphate [1]) | KM (glucosamine-6-phosphate [2]) | self-cleavage kobs at 40 uM GlcN6P (glucosamine-6-phosphate [3]) | self-cleavage kobs at 160 uM GlcN6P (glucosamine-6-phosphate [4]) | self-cleavage kobs at 640 uM GlcN6P (glucosamine-6-phosphate [5]) | self-cleavage kobs at 2500 uM GlcN6P (glucosamine-6-phosphate [6]) | self-cleavage kobs at 10000 uM GlcN6P (glucosamine-6-phosphate [7])
U45G C71A | 0.000924 ± 0.00018 s⁻¹ | 1750 ± 590 µM | 3.27e-05 ± 1.3e-05 s⁻¹ | 8.6e-05 ± 1.7e-05 s⁻¹ | 0.000204 ± 3.8e-05 s⁻¹ | 0.000778 ± 0.00016 s⁻¹ | 0.000766 ± 0.0001 s⁻¹
C58A A64G C71A | 2.69e-05 ± 7.4e-06 s⁻¹ |  |  |  |  |  | 
G41U U56A C70A | 0.0279 ± 0.012 s⁻¹ |  |  | 0.00226 ± 0.00043 s⁻¹ | 0.0096 ± 0.0018 s⁻¹ | 0.033 ± 0.0088 s⁻¹ | 0.0192 ± 0.0059 s⁻¹
A42G U47C | 0.00858 ± 0.0022 s⁻¹ | 6280 ± 2000 µM | 6.46e-05 ± 2.1e-05 s⁻¹ | 0.000257 ± 7.7e-05 s⁻¹ | 0.00074 ± 0.00014 s⁻¹ | 0.00232 ± 0.00039 s⁻¹ | 0.00583 ± 0.0016 s⁻¹
C50U U65G | < 1e-05 s⁻¹ |  | < 1e-05 s⁻¹ |  |  |  | 
U46G C58A | 0.000164 ± 4e-05 s⁻¹ |  | < 1e-05 s⁻¹ |  |  | 3.08e-05 ± 1.2e-05 s⁻¹ | 8.21e-05 ± 1.1e-05 s⁻¹
G13C A15G U45A | 0.000289 ± 4.4e-05 s⁻¹ | 3490 ± 950 µM | < 1e-05 s⁻¹ |  | 4.01e-05 ± 1.3e-05 s⁻¹ | 0.000129 ± 2.4e-05 s⁻¹ | 0.000208 ± 4.4e-05 s⁻¹
A15U G66A | 0.00705 ± 0.002 s⁻¹ | 7800 ± 2800 µM | 4.82e-05 ± 1.6e-05 s⁻¹ | 0.000124 ± 2.4e-05 s⁻¹ | 0.000781 ± 0.00023 s⁻¹ | 0.00183 ± 0.00057 s⁻¹ | 0.00391 ± 0.00065 s⁻¹
U31G U47G A48G | 1.96e-05 ± 7.2e-06 s⁻¹ |  |  |  |  |  | 
U49A G59U | 1.28e-05 ± 4.5e-06 s⁻¹ |  |  |  |  |  | 
A48C A53C | 9.8e-05 ± 1.5e-05 s⁻¹ | 4010 ± 1400 µM |  |  |  | 3.99e-05 ± 1.2e-05 s⁻¹ | 6.89e-05 ± 1.7e-05 s⁻¹
A52U C67A | 0.000206 ± 1.5e-05 s⁻¹ | 1480 ± 240 µM |  |  | 6.53e-05 ± 8.3e-06 s⁻¹ | 0.000124 ± 1.6e-05 s⁻¹ | 0.000183 ± 2.1e-05 s⁻¹
U31C A39C | 0.00127 ± 0.00014 s⁻¹ | 2620 ± 500 µM | 3.17e-05 ± 7.1e-06 s⁻¹ | 6.64e-05 ± 9.6e-06 s⁻¹ | 0.000259 ± 2.4e-05 s⁻¹ | 0.00058 ± 5.1e-05 s⁻¹ | 0.00102 ± 6.7e-05 s⁻¹
A12U A33U | 0.000444 ± 0.0001 s⁻¹ | 3790 ± 1500 µM |  |  | 7.77e-05 ± 8.6e-06 s⁻¹ | 0.00015 ± 1.6e-05 s⁻¹ | 0.000348 ± 3.2e-05 s⁻¹
A6C G13A A36U U56G | < 1e-05 s⁻¹ |  | < 1e-05 s⁻¹ |  |  | < 1e-05 s⁻¹ | 
C11A U49A | < 1e-05 s⁻¹ |  |  |  | < 1e-05 s⁻¹ | < 1e-05 s⁻¹ | 
G13U A15U | 0.000299 ± 2e-05 s⁻¹ | 5440 ± 760 µM |  |  |  | 9.42e-05 ± 1.4e-05 s⁻¹ | 0.000194 ± 1.9e-05 s⁻¹

Variant | kcat (glucosamine-6-phosphate [1]) | KM (glucosamine-6-phosphate [2]) | self-cleavage kobs at 40 uM GlcN6P (glucosamine-6-phosphate [3]) | self-cleavage kobs at 160 uM GlcN6P (glucosamine-6-phosphate [4]) | self-cleavage kobs at 640 uM GlcN6P (glucosamine-6-phosphate [5]) | self-cleavage kobs at 2500 uM GlcN6P (glucosamine-6-phosphate [6]) | self-cleavage kobs at 10000 uM GlcN6P (glucosamine-6-phosphate [7])
A15G G59U | 0.000115 ± 2.5e-05 s⁻¹ |  |  |  | 2.79e-05 ± 1.3e-05 s⁻¹ | 4.46e-05 ± 1.4e-05 s⁻¹ | 9.05e-05 ± 1.6e-05 s⁻¹
C16A U31C | 0.000468 ± 0.00021 s⁻¹ |  |  |  | 6.72e-05 ± 1.1e-05 s⁻¹ | 0.000139 ± 2.8e-05 s⁻¹ | 0.000418 ± 0.00011 s⁻¹
U30A U45A | 0.00916 ± 0.0024 s⁻¹ | 1290 ± 500 µM | 0.000369 ± 6.4e-05 s⁻¹ | 0.000872 ± 0.00018 s⁻¹ | 0.00285 ± 0.00065 s⁻¹ | 0.00515 ± 0.001 s⁻¹ | 0.0107 ± 0.0021 s⁻¹
U46C C71A | 0.000545 ± 4.7e-05 s⁻¹ | 811 ± 130 µM |  | 8.19e-05 ± 2.2e-05 s⁻¹ | 0.000252 ± 4.5e-05 s⁻¹ | 0.00045 ± 9.1e-05 s⁻¹ | 0.000453 ± 0.00011 s⁻¹
C10A U55G | < 1e-05 s⁻¹ |  |  | < 1e-05 s⁻¹ |  |  | 
C16A C61G | 1.13e-05 ± 1.7e-08 s⁻¹ | 158.6 ± 1.5 µM |  |  |  |  | 
U56G C70A | 4.56e-05 ± 9.3e-06 s⁻¹ |  |  | 3.41e-05 ± 1.7e-05 s⁻¹ | 7.43e-05 ± 3e-05 s⁻¹ | 6.95e-05 ± 1.6e-05 s⁻¹ | 3.66e-05 ± 8.6e-06 s⁻¹
A12C A52U | 0.000397 ± 5.1e-05 s⁻¹ | 2490 ± 570 µM |  |  | 8.66e-05 ± 8.4e-06 s⁻¹ | 0.000188 ± 1.7e-05 s⁻¹ | 0.000329 ± 3.4e-05 s⁻¹
A12G G63C | < 1e-05 s⁻¹ |  |  | < 1e-05 s⁻¹ |  |  | < 1e-05 s⁻¹
G13A G41A | 6.21e-05 ± 2.2e-06 s⁻¹ | 1770 ± 270 µM |  |  |  | 3.77e-05 ± 1.2e-05 s⁻¹ | 5.25e-05 ± 8.1e-06 s⁻¹
G41A | 0.00567 ± 0.0025 s⁻¹ |  | 0.000349 ± 0.00013 s⁻¹ | 0.00036 ± 6.4e-05 s⁻¹ | 0.000923 ± 0.0001 s⁻¹ | 0.00264 ± 0.00017 s⁻¹ | 
A6C A39G | 6.38e-05 ± 7.8e-07 s⁻¹ | 439 ± 33 µM |  |  |  | 5.42e-05 ± 1.9e-05 s⁻¹ | 6.11e-05 ± 1.4e-05 s⁻¹
G43U U54G | 8.63e-05 ± 2.8e-05 s⁻¹ |  |  |  |  | 6.89e-05 ± 1.8e-05 s⁻¹ | 6.53e-05 ± 2.3e-05 s⁻¹
A52G C71A | 0.000593 ± 8.1e-05 s⁻¹ | 3190 ± 730 µM |  | 3.52e-05 ± 1.4e-05 s⁻¹ | 9.96e-05 ± 1.3e-05 s⁻¹ | 0.000247 ± 3.1e-05 s⁻¹ | 0.000466 ± 5.9e-05 s⁻¹
C16U A48G | 7.95e-05 ± 1.2e-05 s⁻¹ |  |  |  |  | 6.63e-05 ± 1.1e-05 s⁻¹ | 6.95e-05 ± 8.6e-06 s⁻¹
A12U C61A G63C C70U | 3.89e-05 ± 1.1e-05 s⁻¹ |  |  | 3.45e-05 ± 1.3e-05 s⁻¹ |  | 4.79e-05 ± 1.7e-05 s⁻¹ | 
G13U U54G | 0.00069 ± 0.00021 s⁻¹ |  | 3.24e-05 ± 1.1e-05 s⁻¹ | 9.27e-05 ± 1.6e-05 s⁻¹ | 0.000263 ± 6e-05 s⁻¹ | 0.000363 ± 6.4e-05 s⁻¹ | 0.000964 ± 0.00015 s⁻¹
